Test results published in US20260207718.

Target: cation-independent mannose-6-phosphate receptor (CIMPR) on fibroblast cells (UniProt P11717)
Sequence (P11717 41-2491): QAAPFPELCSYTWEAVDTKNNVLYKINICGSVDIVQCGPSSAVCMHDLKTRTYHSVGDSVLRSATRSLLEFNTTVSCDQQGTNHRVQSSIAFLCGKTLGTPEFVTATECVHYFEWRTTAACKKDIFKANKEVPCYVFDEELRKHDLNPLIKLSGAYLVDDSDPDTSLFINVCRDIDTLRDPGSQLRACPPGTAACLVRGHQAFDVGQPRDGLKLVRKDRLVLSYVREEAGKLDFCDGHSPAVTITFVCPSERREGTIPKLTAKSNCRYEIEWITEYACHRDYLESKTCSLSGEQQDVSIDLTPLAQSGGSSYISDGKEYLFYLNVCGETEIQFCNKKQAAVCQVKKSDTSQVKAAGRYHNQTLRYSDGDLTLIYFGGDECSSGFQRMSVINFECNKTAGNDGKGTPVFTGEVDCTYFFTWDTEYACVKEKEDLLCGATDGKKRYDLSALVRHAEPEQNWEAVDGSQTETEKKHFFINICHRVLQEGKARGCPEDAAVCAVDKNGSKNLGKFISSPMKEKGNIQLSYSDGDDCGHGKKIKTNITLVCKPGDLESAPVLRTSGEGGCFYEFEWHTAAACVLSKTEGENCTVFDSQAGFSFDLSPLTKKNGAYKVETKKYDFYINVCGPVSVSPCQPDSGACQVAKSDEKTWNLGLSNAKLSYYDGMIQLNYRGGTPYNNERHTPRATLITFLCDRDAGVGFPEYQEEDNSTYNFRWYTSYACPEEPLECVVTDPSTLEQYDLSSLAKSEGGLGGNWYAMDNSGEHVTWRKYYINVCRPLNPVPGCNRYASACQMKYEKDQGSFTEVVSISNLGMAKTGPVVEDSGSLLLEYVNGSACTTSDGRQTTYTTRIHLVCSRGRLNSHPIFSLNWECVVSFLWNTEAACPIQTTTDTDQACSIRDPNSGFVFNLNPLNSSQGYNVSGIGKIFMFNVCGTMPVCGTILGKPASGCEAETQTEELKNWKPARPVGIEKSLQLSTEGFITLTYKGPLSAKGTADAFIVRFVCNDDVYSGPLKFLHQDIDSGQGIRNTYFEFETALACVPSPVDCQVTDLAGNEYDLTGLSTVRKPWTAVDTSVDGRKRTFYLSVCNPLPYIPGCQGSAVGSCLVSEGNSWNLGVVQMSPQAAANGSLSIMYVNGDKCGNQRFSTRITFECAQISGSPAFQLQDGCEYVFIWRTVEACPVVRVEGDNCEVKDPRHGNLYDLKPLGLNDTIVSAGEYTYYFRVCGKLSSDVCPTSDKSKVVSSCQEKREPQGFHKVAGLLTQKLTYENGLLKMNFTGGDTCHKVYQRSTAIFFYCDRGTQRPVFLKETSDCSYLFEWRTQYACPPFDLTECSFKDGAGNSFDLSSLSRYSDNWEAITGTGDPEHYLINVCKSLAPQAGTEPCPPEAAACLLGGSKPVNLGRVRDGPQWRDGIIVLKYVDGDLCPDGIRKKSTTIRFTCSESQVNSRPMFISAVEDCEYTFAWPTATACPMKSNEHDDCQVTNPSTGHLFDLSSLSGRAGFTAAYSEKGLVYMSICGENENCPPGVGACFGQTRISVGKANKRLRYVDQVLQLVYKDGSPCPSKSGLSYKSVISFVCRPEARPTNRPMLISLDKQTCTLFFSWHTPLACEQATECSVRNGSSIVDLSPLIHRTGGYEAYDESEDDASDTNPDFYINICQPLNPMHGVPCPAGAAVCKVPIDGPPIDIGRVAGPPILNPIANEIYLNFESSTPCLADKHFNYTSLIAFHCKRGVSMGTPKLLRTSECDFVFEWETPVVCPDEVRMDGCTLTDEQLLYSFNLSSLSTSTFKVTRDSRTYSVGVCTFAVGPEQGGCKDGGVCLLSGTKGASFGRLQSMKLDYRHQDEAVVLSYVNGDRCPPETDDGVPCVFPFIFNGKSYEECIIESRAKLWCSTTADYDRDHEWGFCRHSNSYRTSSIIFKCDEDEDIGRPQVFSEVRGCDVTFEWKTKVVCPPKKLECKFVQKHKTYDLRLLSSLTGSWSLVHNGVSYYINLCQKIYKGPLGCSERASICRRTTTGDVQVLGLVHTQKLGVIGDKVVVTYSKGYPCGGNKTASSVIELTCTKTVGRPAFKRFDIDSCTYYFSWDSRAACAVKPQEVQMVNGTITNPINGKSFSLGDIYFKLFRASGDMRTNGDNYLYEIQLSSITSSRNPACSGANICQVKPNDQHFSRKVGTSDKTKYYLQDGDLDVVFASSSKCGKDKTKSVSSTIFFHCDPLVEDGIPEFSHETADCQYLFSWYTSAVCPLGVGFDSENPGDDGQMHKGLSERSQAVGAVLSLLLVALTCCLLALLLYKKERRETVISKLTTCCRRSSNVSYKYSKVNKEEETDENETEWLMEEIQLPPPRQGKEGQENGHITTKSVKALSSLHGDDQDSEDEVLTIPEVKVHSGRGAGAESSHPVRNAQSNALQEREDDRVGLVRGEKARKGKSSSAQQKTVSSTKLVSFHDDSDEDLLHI

Row | Substance | stated: internalized (GAA activity inside CRL 2076 normal fibroblasts) | stated: internalized (GAA activity inside PM25 Pompe fibroblasts)
1 | LUMIZYME® (alglucosidase alfa, conventional rhGAA product) | The curve labelled Alglucosidase Alfa rises gradually from 0: about 8 at about 10 nM, about 16 at about 27 nM and about 23 at about 80 nM. It reaches about 35 nmol/mg protein/hr at about 240 nM, where it meets the ATB200 curve. The +M6P point (square) at about 240 nM lies at about 1, on the zero lin | The curve labelled Alglucosidase Alfa rises gradually from 0: about 7 at about 10 nM, about 13 at about 27 nM and about 26 at about 80 nM. It reaches about 37 nmol/mg protein/hr at about 240 nM and stays below the ATB200 curve throughout. The +M6P points at about 245 nM lie at about 1-4, near the ze
2 | ATB200 recombinant human acid α-glucosidase (rhGAA) | The curve labelled ATB200 rises steeply from 0 to about 33 nmol/mg protein/hr at about 25 nM. It then stays on a plateau of about 34 up to about 240 nM. The +M6P point (triangle) at about 240 nM lies at about 5, near the zero line. | The curve labelled ATB200 rises steeply from 0 to about 30 at about 10 nM and about 36 at about 27 nM. The fitted plateau is about 41 nmol/mg protein/hr from about 80 nM. The last point, at about 240 nM, is about 45. The +M6P points at about 245 nM lie at about 1-4, near the zero line.
